{
  "source": "patent US20210355221A1",
  "about": "“Targeting the Non-Canonical NFkB Pathway in Cancer Immunotherapy” (The General Hospital Corporation, priority 2018, published 2021)",
  "key": {"B16F10 melanoma": {"tested_on": "B16F10 melanoma", "test": "B16F10 melanoma tumor model: tumor growth, survival, re-challenge", "format": "in vivo", "conditions": "B16F10 melanoma-bearing mice, treatment as labelled", "description": "Tumor bearing mice, with a tumor size of approximately 75 mm^3, were treated with 200 μg of aPD-1 and/or 100 μg of aCD40 intraperitoneally for immunotherapy studies. For combination treatment studies, both aPD-1 and aCD40 were administered at the same time. […] Mice received a single dose of AZD5582 at 10 mg/kg, intraperitoneally. […]"}, "MC38 tumors": {"tested_on": "MC38 tumors", "test": "MC38 tumor model: tumor growth, survival, re-challenge", "format": "in vivo, mice", "conditions": "MC38 tumor-bearing mice, treatment as labelled", "experimental": "MC38 tumor cell lines were obtained from Dr. Mark Smyth (QIMR Berghofer). MC38 cells were implanted at 2×10^6 cells in the flank. B16F10 cell lines were obtained from ATCC. B16F10 cells were implanted intradermally at 0.5×10^6 cells in the flank. All tumor models were allowed to grow for one week prior to therapy. Tumor sizes were approximately 75 mm^3 before treatment initiation, and starting tumor volumes were normalized between treatment groups. Percent tumor changes were calculated as percent difference of mouse tumor volume from pre-treatment baseline, measured using digital caliper. Lung seeding B16F10 models received 0.5×10^6 cells intravenously and were allowed to grow for 10 days from the point of implantation. Mouse tumors were allowed to grow to a maximum of 2 cm in diameter, or until tumor ulceration occurred. These were considered as endpoints for survival experiments in accordance with MGH IACUC regulations.\nTumor bearing mice, with a tumor size of approximately 75 mm^3, were treated with 200 μg of aPD-1 and/or 100 μg of aCD40 intraperitoneally for immunotherapy studies. For combination treatment studies, both aPD-1 and aCD40 were administered at the same time. For IL-12 neutralization studies, mice were dosed with 500 μg of anti-IL-12p40 Clone 17.8 daily for 5-7 days following aPD-1 therapy. Neutralization of IFN-γ in vivo was performed by administering 1 mg of anti-IFN-γ Clone XMG1.2 initially with 500 μg of anti-IFN-γ dosed daily intraperitoneally for days 1-3. The cIAP1/2 inhibitor AZD5582 (Hennessy et al., 2013) was purchased from Selleck Chem and was resuspended in sterile saline. Mice received a single dose of AZD5582 at 10 mg/kg, intraperitoneally. […]\nLong-term surviving mice from aPD-1 and aCD40 combination therapy were re-challenged with either MC38 or B16F10 tumors at 50 days following primary tumor rejection. […] Naive C57BL/6J mice were implanted alongside re-challenge mice, and these mice were monitored for tumor growth for 2 weeks following implantation. […]"}, "[1]": {"tested_on": "Tumor-infiltrating CD8^+ T cells isolated from MC38 tumors", "test": "In vitro restimulation of tumor-infiltrating CD8+ T cells isolated from MC38 tumors (intracellular IFN-γ, flow cytometry)", "format": "cell-based, mice", "conditions": "aCD3/CD28 stimulation with IL-12 (20 ng/ml), 72 hours", "experimental": "Tumor tissue or tumor draining lymph nodes were isolated from mice and minced using surgical scissors. Tissues were then digested using 0.2 mg/ml Collagenase II (Worthington) in RPMI 1640 media (CellGro) at 37° C. for 30 minutes and then strained through a 40 μm filter (BD Falcon). Cell suspensions were incubated with Fc Block TruStain FcX Clone 93 (Biolegend) in PBS containing 0.5% BSA and 2 mM EDTA before staining with fluorochrome labeled antibodies. Antibodies against CD11b (M1/70, Biolegend), CD8a (53-6.7, Biolegend), CD45 (30-F11, BD), F4/80 (BM8, Biolegend), CD11c (N418, Biolegend), MHC II I-A/I-E (M5/114.15.2, Biolegend), CD103 (2E7, Biolegend), IFN-γ (XMG1.2, Biolegend) were used for marker staining. 7AAD viability staining was used to exclude dead cells from analysis. Samples were run on a LSR II flow cytometer and analyzed using FlowJo software (Treestar). For intracellular cytokine staining, samples were incubated for 5 hours with GolgiPlug (BD) at 1 μl per ml of culture media. Cells were then surface stained and then fixed and permeabilized using the BD Cytofix/Cytoperm kit (BD) according to manufacturer's protocol and stained for intracellular cytokines.\nMC38 tumors were digested into single cell suspensions similar to tissue processing for flow cytometry analysis and were passed through a 40 μm filter. […]"}},
  "data": [
    {"molecule": "IL-12: recombinant IL-12 in mouse studies; recombinant human IL-12p70 (PeproTech) in the human ex vivo studies (protein, UniProt P29459 23-219; P29460 23-328, looked up) Interleukin-12 subunit alpha: RNLPVATPDPGMFPCLHHSQNLLRAVSNMLQKARQTLEFYPCTSEEIDHEDITKDKTSTVEACLPLELTKNESCLNSRETSFITNGSCLASRKTSFMMALCLSSIYEDLKMYQVEFKTMNAKLLMDPKRQIFLDQNMLAVIDELMQALNFNSETVPQKSSLEEPDFYKTKIKLCILLHAFRIRAVTIDRVMSYLNAS Interleukin-12 subunit beta: IWELKKDVYVVELDWYPDAPGEMVVLTCDTPEEDGITWTLDQSSEVLGSGKTLTIQVKEFGDAGQYTCHKGGEVLSHSLLLLHKKEDGIWSTDILKDQKEPKNKTFLRCEAKNYSGRFTCWWLTTISTDLTFSVKSSRGSSDPQGVTCGAATLSAERVRGDNKEYEYSVECQEDSACPAAEESLPIEVMVDAVHKLKYENYTSSFFIRDIIKPDPPKNLQLKPLKNSRQVEVSWEYPDTWSTPHSYFSLTFCVQVQGKSKREKKDRVFTDKTSATVICRKNASISVRAQDRYYSSSWSEWASVPCS", "values": [
      {"measurement": "antitumor response, B16F10 tumors", "setting": "B16F10 melanoma", "result": "substantial antitumor effect"},
      {"measurement": "antitumor response, MC38 tumors", "setting": "MC38 tumors", "result": "robust antitumor responses"},
      {"measurement": "IFN-γ production by stimulated CD8^+ T cells", "setting": "[1]", "result": "substantially increased IFN-γ production"}
    ]}
  ]
}
